Measured values taken from patent US20050066381A1.

Columns and labels:
[1] = tested on: recombinant Ser-67-Ala inhibitor-1 isolated from E. coli
[2] = tested on: recombinant wildtype inhibitor-1 isolated from E. coli
[3] = target: PP1c (PP1cα), protein phosphatase 1 catalytic subunit; assay: PP1c pull-down from adenovirus-infected cardiomyocytes (I-1 + PKCα dn), I-1 Western blot, quantified
[4] = target: PP1c (PP1cα), protein phosphatase 1 catalytic subunit; assay: PP1c pull-down from adenovirus-infected cardiomyocytes (I-1 + PKCα wt), I-1 Western blot, quantified

PP1c (PP1cα), protein phosphatase 1 catalytic subunit, sequence (P62138 2-330): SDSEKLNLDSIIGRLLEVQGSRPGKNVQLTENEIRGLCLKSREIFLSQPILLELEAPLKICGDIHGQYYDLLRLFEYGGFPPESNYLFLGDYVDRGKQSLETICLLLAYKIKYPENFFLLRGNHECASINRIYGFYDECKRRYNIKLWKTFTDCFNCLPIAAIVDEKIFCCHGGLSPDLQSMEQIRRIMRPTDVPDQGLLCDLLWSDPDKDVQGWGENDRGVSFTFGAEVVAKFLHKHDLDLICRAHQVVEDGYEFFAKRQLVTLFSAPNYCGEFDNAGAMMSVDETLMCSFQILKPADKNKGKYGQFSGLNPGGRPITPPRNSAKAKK

In the case of “protein kinase C isolated from rabbit heart muscle”, the “in vitro phosphorylation with 32P-ATP, relative to wildtype I-1” value [1] is reported as “approximately 50% less phosphorylation by PKC compared with equal amounts of wildtype protein” and the “in vitro phosphorylation with 32P-ATP, SDS-PAGE and quantification of radioactivity” value [2] is reported as “Wildtype I-1 protein was directly phosphorylated in vitro in a time-dependent manner at stoichiometric levels by PKC”.

In the case of “Inhibitor-1 (I-1), expressed from adenovirus in neonatal rat cardiomyocytes”, the increase of I-1/PP1c complex formation when dominant negative PKCα is expressed [3] is reported as > 70 % increase and the reduction of I-1 interaction with PP1c when wildtype PKCα is overexpressed [4] is reported as 50 % reduction.
